{"source": "patent US20230183381A1", "about": "(VIRTUOSO BINCO, published 2023)", "key": {"[1]": {"target": "T1, recombinant BCMA (Sino Biological 10620-H03H-B) (human, UniProt Q02223 1-54)", "T1 construct": "Bought protein; also called human BCMA", "T1 sequence (looked up)": "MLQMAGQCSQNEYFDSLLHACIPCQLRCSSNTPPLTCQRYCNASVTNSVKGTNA", "test": "ELISA, plate coated with recombinant BCMA"}, "[2]": {"target": "T2, human CD38 extracellular domain (hCD38, recombinant, with AviTag) (human, UniProt P28907 43-300)", "T2 construct": "also called recombinant CD38; huCD38", "test": "ELISA on human CD38 ECD, EC50 class"}}, "data": [{"binder": "Anti-BCMA (antibody, human IgG1, kappa, also called Anti-BCMA BMK2 antibody; Anti-BCMA.BMK2) heavy: not shown light: DIQLTQTTSSLSASLGDRVTISCSASQDISNYLNWYQQKPDGTVELVIYYTSNLHSGVPSRFSGSGSGTDYSLTIGYLEPEDVATYYCQQYRKLPWTFGGGSKLEIKRTVAAPSVFIFPPSDEQLKSGTASVVCLLNNFYPREAKVQWKVDNALQSGNSQESVTEQDSKDSTYSLSSTLTLSKADYEKHKVYACEVTHQGLSSPVTKSFNRGEC", "values": [{"measurement": "EC50", "setting": "[1]", "value": "~0.02", "unit": "nM"}]}, {"binder": "Anti-BCMA.BMK2_ADCC.high (antibody, human IgG1, kappa, Monoclonal IgG1 with ADCC-high Fc mutations; also called ADCC-high variant of Anti-BCMA BMK2 antibody) heavy: EVQLQQSGAVLARPGASVKMSCKGSGYTFTNYWMHWVKQRPGQGLEWIGATYRGHSDTYYNQKFKGKAKLTAVTSTSTAYMELSSLTNEDSAVYYCTRGAIYNGYDVLDNWGQGTLVTVSSASTKGPSVFPLAPSSKSTSGGTAALGCLVKDYFPEPVTVSWNSGALTSGVHTFPAVLQSSGLYSLSSVVTVPSSSLGTQTYICNVNHKPSNTKVDKKVEPKSCDKTHTCPPCPAPELLGGPDVFLFPPKPKDTLMISRTPEVTCVVVDVSHEDPEVKFNWYVDGVEVHNAKTKPREEQYNSTYRVVSVLTVLHQDWLNGKEYKCKVSNKALPLPEEKTISKAKGQPREPQVYTLPPSRDELTKNQVSLTCLVKGFYPSDIAVEWESNGQPENNYKTTPPVLDSDGSFFLYSKLTVDKSRWQQGNVFSCSVMHEALHNHYTQKSLSLSPGK light: DIQLTQTTSSLSASLGDRVTISCSASQDISNYLNWYQQKPDGTVELVIYYTSNLHSGVPSRFSGSGSGTDYSLTIGYLEPEDVATYYCQQYRKLPWTFGGGSKLEIKRRTVAAPSVFIFPPSDEQLKSGTASVVCLLNNFYPREAKVQWKVDNALQSGNSQESVTEQDSKDSTYSLSSTLTLSKADYEKHKVYACEVTHQGLSSPVTKSFNRGEC", "values": [{"measurement": "EC50", "setting": "[1]", "value": "~0.02", "unit": "nM"}]}, {"binder": "Anti-CD38 LC_Y92A (antibody, V domains shown, Alanine variant of h18E4-19 with the parent VH) VH: EVQLLESGGGLVQPGGSLRLSCAASGFSFNNYWIIWIRQAPGKGLEWVAAIYSPSGDIKYYADWAKGRFTVSKDNSKNTVYLQMNSLRAEDTAVYYCARELSGSSYEGYFESWGQGTLVTVSS VL: DIQLTQSPSTLSASVGDRVTITCRSSQSVYGHNWLAWYQQKPGKAPKLLMYRASNLASGVPSRFSGSGSGTEFTLTISSVQPDDFATYYCQGYASGGSYAFGGGTKVEIK", "values": [{"measurement": "EC50", "setting": "[2]", "value": "0.02 to 0.1", "unit": "nM"}]}, {"binder": "Anti-CD38 LC_Y96A (antibody, V domains shown, Alanine variant of h18E4-19 with the parent VH) VH: EVQLLESGGGLVQPGGSLRLSCAASGFSFNNYWIIWIRQAPGKGLEWVAAIYSPSGDIKYYADWAKGRFTVSKDNSKNTVYLQMNSLRAEDTAVYYCARELSGSSYEGYFESWGQGTLVTVSS VL: DIQLTQSPSTLSASVGDRVTITCRSSQSVYGHNWLAWYQQKPGKAPKLLMYRASNLASGVPSRFSGSGSGTEFTLTISSVQPDDFATYYCQGYYSGGSAAFGGGTKVEIK", "values": [{"measurement": "EC50", "setting": "[2]", "value": "0.1 to 0.5", "unit": "nM"}]}]}
